Measured values taken from patent US20220125947A1 (published 2022).

These binders were tested against T1, γδ T cell receptor on human γδ T cells (human) (assay: flow cytometry, DRC binding 37 C, human γδ T cells).
T1 construct: also called AG000003021 (γδ T cells)
Experimental: Binding of antibodies to human γδ T cells or SKW cell lines expressing Vγ9/Vδ2, Vγ9/Vδ2 or Vγ5/Vδ2 was carried out by flow cytometry. Briefly, the cells were centrifuged at 300×g for 5 minutes and the pellet was resuspended in 34 ml fresh media (in RPMI+10% FBS). 50 μL of the cells were then plated (44K cells/well) into assay plates. Samples were incubated for one hour at 37° C. in tissue culture (TC) incubator followed by wash steps by adding 100 μl FACS staining buffer. Secondary detention antibodies (A647 conjugated anti-human IgG Fc specific antibody (2 μg/mL) along with AF488 anti mouse CD3, clone OKT3 at 1 ug/mL) were added at 50 μL/well to appropriate wells according to the plate map. After incubating for 60 minutes at 37° C. in the TC incubator, cells were again washed as described above. This is followed by resuspension in 20 μL/well running buffer containing 1:1000 dilution of Sytox blue dead cell stain and the plates were run on iQue Screener.
Gating and data analysis: Human anti-human Vγ9 antibody (VG9B2 mAb at 10 nM) was used to mark the gating of positive population. All cells were first gated for singlets on SCS-A vs. SCS-H dot plot, live/dead followed by CD3 positive population, and this subset of CD3 positive population was gated for Vγ9 positive binding using positive control mAb. Cells were also assessed for cell binding of control mAbs by RL1 (A647) Geomeans from the live cell population. Advanced metrics were used and normalization metrics were chosen to calculate fold over background wells containing secondary antibody alone (designated as ‘background’ within ForeCyt settings).

Binder | Max. Activity [fold over background]
VG9B68 (antibody, human IgG1, kappa, V domains shown, IgG1, kappa) VH: EVQLVESGAEVKKPGSSVKVSCKASGGTFSTYAISWVRQAPGQGLEWMGGIIPIFGTATYAQRFQDRVMITADKSTTTAYMELSSLRSEDTAVFYCARGVGWGSDYYYGLDVWGQGTMVTVSS VL: EIVMTQSPLSSPVTLGQPASISCRSSQSLVHSDGNTYLSWLQQRPGQSPRLLIYKISNRFSGVPDRFSGSGAGTDFTLRITRVEPEDVGVYYCIQATHHPLTFGGGTRLEIKR | 1190
VG9B454 (antibody, human IgG1, lambda, IgG1, lambda) heavy: not shown light: QAVLTQPASVSGSPGQSITISCTGTSSDVGGYNYVSWYQQHPGKAPKLMIYEVSNRPSGVSNRFSGSKSGNTASLTISGLQAEDEADYYCSSYTSTSVVFGGGTKLTVLGQPKAAPSVTLFPPSSEELQANKATLVCLISDFYPGAVTVAWKADSSPVKAGVETTTPSKQSNNKYAASSYLSLTPEQWKSHRSYSCQVTHEGSTVEKTVAPTECS | 1240
VG9B464 (antibody, human IgG1, lambda, IgG1, lambda) heavy: not shown light: QSALTQPASVSGSPGQSITISCTGTSSDVGGYNYVSWYQQHPGKAPKLMIYEVSNRPSGVSNRFSGSKSGNTASLTISGLQAEDEADYYCSSYTSTSVVFGGGTKLTVLGQPKAAPSVTLFPPSSEELQANKATLVCLISDFYPGAVTVAWKADSSPVKAGVETTTPSKQSNNKYAASSYLSLTPEQWKSHRSYSCQVTHEGSTVEKTVAPTECS | 886
VG9B460 (antibody, human IgG1, lambda, IgG1, lambda) heavy: not shown light: QLVLTQPASVSGSPGQSITISCTGTSSDVGGYNYVSWYQQHPGKAPKLMIYEVSNRPSGVSNRFSGSKSGNTASLTISGLQAEDEADYYCSSYTSTSVVFGGGTKLTVLGQPKAAPSVTLFPPSSEELQANKATLVCLISDFYPGAVTVAWKADSSPVKAGVETTTPSKQSNNKYAASSYLSLTPEQWKSHRSYSCQVTHEGSTVEKTVAPTECS | 767
VG9B436 (antibody, human IgG1, lambda, IgG1, lambda) heavy: not shown light: QSVLTQPASVSGSPGQSITISCTGTSSDVGGYNYVSWYQQHPGKAPKLMIYEVSNRPSGVSNRFSGSKSGNTASLTISGLQAEDEADYYCSSYTSTSVVFGGGTKLTVLGQPKAAPSVTLFPPSSEELQANKATLVCLISDFYPGAVTVAWKADSSPVKAGVETTTPSKQSNNKYAASSYLSLTPEQWKSHRSYSCQVTHEGSTVEKTVAPTECS | 812
VG9B442 (antibody, human IgG1, lambda, IgG1, lambda) heavy: not shown light: QSALTQPASVSGSPGQSITISCTGTSSDVGGYNYVSWYQQHPGKAPKLMIYEVSNRPSGVSNRFSGSKSGNTASLTISGLQAEDEADYYCSSYTSTSVVFGGGTKVTVLGQPKAAPSVTLFPPSSEELQANKATLVCLISDFYPGAVTVAWKADSSPVKAGVETTTPSKQSNNKYAASSYLSLTPEQWKSHRSYSCQVTHEGSTVEKTVAPTECS | 856
VG9B438 (antibody, human IgG1, lambda, IgG1, lambda) heavy: not shown light: SYELTQPASVSGSPGQSITISCTGTSSDVGGYNYVSWYQQHPGKAPKLMIYEVSNRPSGVSNRFSGSKSGNTASLTISGLQAEDEADYYCSSYTSTSVVFGGGTKLTVLGQPKAAPSVTLFPPSSEELQANKATLVCLISDFYPGAVTVAWKADSSPVKAGVETTTPSKQSNNKYAASSYLSLTPEQWKSHRSYSCQVTHEGSTVEKTVAPTECS | 895
VG9B437 (antibody, human IgG1, lambda, IgG1, lambda) heavy: not shown light: QSALTQPASVSGSPGQSITISCTGTSSDVGGYNYVSWYQQHPGKAPKLMIYEVSNRPSGVSNRFSGSKSGNTASLTISGLQAEDEADYYCSSYTSTSVVFGGGTKLTVLGQPKAAPSVTLFPPSSEELQANKATLVCLISDFYPGAVTVAWKADSSPVKAGVETTTPSKQSNNKYAASSYLSLTPEQWKSHRSYSCQVTHEGSTVEKTVAPTECS | 885
VG9B457 (antibody, human IgG1, lambda, IgG1, lambda) heavy: not shown light: QAVLTQPASVSGSPGQSITISCTGTSSDVGGYNYVSWYQQHPGKAPKLMIYEVSNRPSGVSNRFSGSKSGNTASLTISGLQAEDEADYYCSSYTSTSVVFGGGTKLTVLGQPKAAPSVTLFPPSSEELQANKATLVCLISDFYPGAVTVAWKADSSPVKAGVETTTPSKQSNNKYAASSYLSLTPEQWKSHRSYSCQVTHEGSTVEKTVAPTECS | 865
VG9B449 (antibody, human IgG1, lambda, IgG1, lambda) heavy: not shown light: QAVLTQPASVSGSPGQSITISCTGTSSDVGGYNYVSWYQQHPGKAPKLMIYEVSNRPSGVSNRFSGSKSGNTASLTISGLQAEDEADYYCSSYTSTSVVFGGGTKVTVLGQPKAAPSVTLFPPSSEELQANKATLVCLISDFYPGAVTVAWKADSSPVKAGVETTTPSKQSNNKYAASSYLSLTPEQWKSHRSYSCQVTHEGSTVEKTVAPTECS | 1180
VG9B455 (antibody, human IgG1, lambda, IgG1, lambda) heavy: not shown light: SYELTQPASVSGSPGQSITISCTGTSSDVGGYNYVSWYQQHPGKAPKLMIYEVSNRPSGVSNRFSGSKSGNTASLTISGLQAEDEADYYCSSYTSTSVVFGGGTKLTVLGQPKAAPSVTLFPPSSEELQANKATLVCLISDFYPGAVTVAWKADSSPVKAGVETTTPSKQSNNKYAASSYLSLTPEQWKSHRSYSCQVTHEGSTVEKTVAPTECS | 1000
VG9B450 (antibody, human IgG1, lambda, IgG1, lambda) heavy: not shown light: QSVLTQPASVSGSPGQSITISCTGTSSDVGGYNYVSWYQQHPGKAPKLMIYEVSNRPSGVSNRFSGSKSGNTASLTISGLQAEDEADYYCSSYTSTSVVFGGGTKLTVLGQPKAAPSVTLFPPSSEELQANKATLVCLISDFYPGAVTVAWKADSSPVKAGVETTTPSKQSNNKYAASSYLSLTPEQWKSHRSYSCQVTHEGSTVEKTVAPTECS | 928
VG9B434 (antibody, human IgG1, lambda, IgG1, lambda) heavy: not shown light: QSVLTQPASVSGSPGQSITISCTGTSSDVGGYNYVSWYQQHPGKAPKLMIYEVSNRPSGVSNRFSGSKSGNTASLTISGLQAEDEADYYCSSYTSTSVVFGGGTKLTVLGQPKAAPSVTLFPPSSEELQANKATLVCLISDFYPGAVTVAWKADSSPVKAGVETTTPSKQSNNKYAASSYLSLTPEQWKSHRSYSCQVTHEGSTVEKTVAPTECS | 804
VG9B459 (antibody, human IgG1, lambda, IgG1, lambda) heavy: not shown light: QPVLTQPASVSGSPGQSITISCTGTSSDVGGYNYVSWYQQHPGKAPKLMIYEVSNRPSGVSNRFSGSKSGNTASLTISGLQAEDEADYYCSSYTSTSVVFGGGTKLTVLGQPKAAPSVTLFPPSSEELQANKATLVCLISDFYPGAVTVAWKADSSPVKAGVETTTPSKQSNNKYAASSYLSLTPEQWKSHRSYSCQVTHEGSTVEKTVAPTECS | 1090
VG9B443 (antibody, human IgG1, lambda, IgG1, lambda) heavy: not shown light: QSALTQPASVSGSPGQSITISCTGTSSDVGGYNYVSWYQQHPGKAPKLMIYEVSNRPSGVSNRFSGSKSGNTASLTISGLQAEDEADYYCSSYTSTSVVFGGGTKLTVLGQPKAAPSVTLFPPSSEELQANKATLVCLISDFYPGAVTVAWKADSSPVKAGVETTTPSKQSNNKYAASSYLSLTPEQWKSHRSYSCQVTHEGSTVEKTVAPTECS | 1010
VG9B439 (antibody, human IgG1, lambda, IgG1, lambda) heavy: not shown light: QSALTQPASVSGSPGQSITISCTGTSSDVGGYNYVSWYQQHPGKAPKLMIYEVSNRPSGVSNRFSGSKSGNTASLTISGLQAEDEADYYCSSYTSTSVVFGGGTKLTVLGQPKAAPSVTLFPPSSEELQANKATLVCLISDFYPGAVTVAWKADSSPVKAGVETTTPSKQSNNKYAASSYLSLTPEQWKSHRSYSCQVTHEGSTVEKTVAPTECS | 1240
VG9B453 (antibody, human IgG1, lambda, IgG1, lambda) heavy: not shown light: QSALTQPASVSGSPGQSITISCTGTSSDVGGYNYVSWYQQHPGKAPKLMIYEVSNRPSGVSNRFSGSKSGNTASLTISGLQAEDEADYYCSSYTSTSVVFGGGTKVTVLGQPKAAPSVTLFPPSSEELQANKATLVCLISDFYPGAVTVAWKADSSPVKAGVETTTPSKQSNNKYAASSYLSLTPEQWKSHRSYSCQVTHEGSTVEKTVAPTECS | 1040
VG9B466 (antibody, human IgG1, lambda, IgG1, lambda) heavy: not shown light: SYELTQPASVSGSPGQSITISCTGTSSDVGGYNYVSWYQQHPGKAPKLMIYEVSNRPSGVSNRFSGSKSGNTASLTISGLQAEDEADYYCSSYTSTSVVFGGGTKLTVLGQPKAAPSVTLFPPSSEELQANKATLVCLISDFYPGAVTVAWKADSSPVKAGVETTTPSKQSNNKYAASSYLSLTPEQWKSHRSYSCQVTHEGSTVEKTVAPTECS | 946
VG9B204 (antibody, human IgG1, lambda, V domains shown, IgG1, lambda) VH: QVQLQESGPGLVKPSETLSLTCTVSYGSFSSFYWSWIRQPAGKGLEWIGRIYTSGGTIYNPSLKSRVTMSVDTSKNQFSLKLSSVTAADTAVYYCARWLRAFDYWGQGTLVTVSS VL: not shown | 1130
VG9B157 (antibody, human IgG1, lambda, V domains shown, IgG1, lambda) VH: EVQLLESGGGLVKPGASLKLSCAASGFTFSNHGMSWVRQTSDKRLEWVASITRGGDTTYYPDNVKGRFTISRENAKNTLYLQMSSLKSDDTALYYCTRGPLTVGYAMDYWGQGTTVTVSS VL: SSELTQDPAVSVALGQTVRITCQGDSLRSYYATWYQQKPGQAPILVIYGENNRPSGIPDRFSGSRSGNTASLTITGAQAEDEADYYCNSRDTGDHHLVFGGGTKLTVLG | 1070
